The results in this text go back to publication doi:10.1101/315713 (bioRxiv, 2018).

This data set deals with the molecule itself.

B1: Dipeptidase 3 (DPEP3), native, from testicular tissue and spermatozoa lysates (natural protein, UniProt Q9H4B8 36-463, looked up)
chain: AETTPGAPRALSTLGSPSLFTTPGVPSALTTPGLTTPGTPKTLDLRGRAQALMRSFPLVDGHNDLPQVLRQRYKNVLQDVNLRNFSHGQTSLDRLRDGLVGAQFWSASVSCQSQDQTAVRLALEQIDLIHRMCASYSELELVTSAEGLNSSQKLACLIGVEGGHSLDSSLSVLRSFYVLGVRYLTLTFTCSTPWAESSTKFRHHMYTNVSGLTSFGEKVVEELNRLGMMIDLSYASDTLIRRVLEVSQAPVIFSHSAARAVCDNLLNVPDDILQLLKKNGGIVMVTLSMGVLQCNLLANVSTVADHFDHIRAVIGSEFIGIGGNYDGTGRFPQGLEDVSTYPVLIEELLSRSWSEEELQGVLRGNLLRVFRQVEKVREESRAQSPVEAEFPYGQLSTSCHSHLVPQNGHQATHLEVTKQPTNRVPWRS
Broadly, the stoichiometry N is a count of units in the complex or per binding partner. B1: the “stoichiometry N” value turned out to be 2.

B2: DPEP3, free soluble native form in seminal plasma (natural protein, human (endogenous in seminal plasma), UniProt Q9H4B8 36-463, looked up)
chain: B1 chain
With B2, the “stoichiometry N” value was found to be 2.
